In publication PMC4510984 (Nature, 2015):
Where two headings read alike, the source gives them in different places.

Legend:
Assay in all cases: transmission electron microscopy
[1] = target: the molecule itself
[2] = target: the molecule itself; remark: listed apart in the source
[3] = target: the molecule itself; remark: listed apart in the source

B1: human phosphofructokinase-1, platelet isoform (PFKP), recombinant wild type (enzyme, UniProt Q01813-1 1-784, looked up)
chain: MDADDSRAPKGSLRKFLEHLSGAGKAIGVLTSGGDAQGMNAAVRAVVRMGIYVGAKVYFIYEGYQGMVDGGSNIAEADWESVSSILQVGGTIIGSARCQAFRTREGRLKAACNLLQRGITNLCVIGGDGSLTGANLFRKEWSGLLEELARNGQIDKEAVQKYAYLNVVGMVGSIDNDFCGTDMTIGTDSALHRIIEVVDAIMTTAQSHQRTFVLEVMGRHCGYLALVSALACGADWVFLPESPPEEGWEEQMCVKLSENRARKKRLNIIIVAEGAIDTQNKPITSEKIKELVVTQLGYDTRVTILGHVQRGGTPSAFDRILASRMGVEAVIALLEATPDTPACVVSLNGNHAVRLPLMECVQMTQDVQKAMDERRFQDAVRLRGRSFAGNLNTYKRLAIKLPDDQIPKTNCNVAVINVGAPAAGMNAAVRSAVRVGIADGHRMLAIYDGFDGFAKGQIKEIGWTDVGGWTGQGGSILGTKRVLPGKYLEEIATQMRTHSINALLIIGGFEAYLGLLELSAAREKHEEFCVPMVMVPATVSNNVPGSDFSIGADTALNTITDTCDRIKQSASGTKRRVFIIETMGGYCGYLANMGGLAAGADAAYIFEEPFDIRDLQSNVEHLTEKMKTTIQRGLVLRNESCSENYTTDFIYQLYSEEGKGVFDCRKNVLGHMQQGGAPSPFDRNFGTKISARAMEWITAKLKEARGRGKKFTTDDSICVLGISKRNVIFQPVAELKKQTDFEHRIPKEQWWLKLRPLMKILAKYKASYDVSDSGQLEHVQPWSV
stoichiometry N [1]: 2 | stoichiometry N [2]: 4

B2: PFKP-F649L (enzyme, human, UniProt Q01813-1 1-784, looked up)
chain: MDADDSRAPKGSLRKFLEHLSGAGKAIGVLTSGGDAQGMNAAVRAVVRMGIYVGAKVYFIYEGYQGMVDGGSNIAEADWESVSSILQVGGTIIGSARCQAFRTREGRLKAACNLLQRGITNLCVIGGDGSLTGANLFRKEWSGLLEELARNGQIDKEAVQKYAYLNVVGMVGSIDNDFCGTDMTIGTDSALHRIIEVVDAIMTTAQSHQRTFVLEVMGRHCGYLALVSALACGADWVFLPESPPEEGWEEQMCVKLSENRARKKRLNIIIVAEGAIDTQNKPITSEKIKELVVTQLGYDTRVTILGHVQRGGTPSAFDRILASRMGVEAVIALLEATPDTPACVVSLNGNHAVRLPLMECVQMTQDVQKAMDERRFQDAVRLRGRSFAGNLNTYKRLAIKLPDDQIPKTNCNVAVINVGAPAAGMNAAVRSAVRVGIADGHRMLAIYDGFDGFAKGQIKEIGWTDVGGWTGQGGSILGTKRVLPGKYLEEIATQMRTHSINALLIIGGFEAYLGLLELSAAREKHEEFCVPMVMVPATVSNNVPGSDFSIGADTALNTITDTCDRIKQSASGTKRRVFIIETMGGYCGYLANMGGLAAGADAAYIFEEPFDIRDLQSNVEHLTEKMKTTIQRGLVLRNESCSENYTTDLIYQLYSEEGKGVFDCRKNVLGHMQQGGAPSPFDRNFGTKISARAMEWITAKLKEARGRGKKFTTDDSICVLGISKRNVIFQPVAELKKQTDFEHRIPKEQWWLKLRPLMKILAKYKASYDVSDSGQLEHVQPWSV
stoichiometry N [3]: 2
